This assay deals with 62 kDa active MMP-2. Briefly: enzyme inhibition kinetics.

Substance “TIMP-2-His6 Y90E expressed in HEK293H cells (from UniProt P16035 27-220) (natural protein)” registered an inhibitory constant (Ki) of 154 pM.

The record behind these values is paper PMC6135941.
